Patent US20230086069A1

Target: cynomolgus CD19 (cynomolgus)
Experiment: BLI (Octet); cynomolgus CD19

Kd: 3.6 nM
B1: SI-63C2 (recombinant mAb with H1 humanized anti-CD19 variable sequence) (antibody, V domains shown)
VH: QVTLKESGPGLVQPGQTLRLTCAFSGFSLSTSGMGVGWIRQPPGKGLEWLAHIWWDDDKRYNPALKSRLTISKDTSKNQVYLQMNSLDAEDTAVYYCARMELWSYYFDYWGQGTLVTVSS
VL: ENVLTQSPASLSASPGERVTITCSASSSVSYMHWYQQKPGQAPKLWIYDTSKLASGVPSRFSGSGSGNDHTLTISSMEPEDFATYYCFQGSVYPFTFGQGTKLEIKR
